This data set concerns the target T1, NusA (Bacillus velezensis, UniProt A7Z4T1 1-373).
T1 sequence: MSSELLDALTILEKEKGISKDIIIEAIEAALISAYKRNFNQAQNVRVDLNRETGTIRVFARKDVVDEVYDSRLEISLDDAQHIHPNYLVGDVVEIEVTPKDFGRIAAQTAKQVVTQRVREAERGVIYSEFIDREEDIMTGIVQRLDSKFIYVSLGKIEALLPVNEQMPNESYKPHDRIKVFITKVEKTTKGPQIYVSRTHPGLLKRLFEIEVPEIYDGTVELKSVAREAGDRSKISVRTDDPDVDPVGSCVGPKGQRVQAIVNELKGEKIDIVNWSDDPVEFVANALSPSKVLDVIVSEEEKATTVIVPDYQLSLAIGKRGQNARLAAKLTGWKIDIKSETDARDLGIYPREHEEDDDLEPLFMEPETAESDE
Description: DRaCALA filter binding; 50 mM NaH2PO4 pH 7.2, 100 mM NaCl, 0.1 mM EDTA, 1 mM MgCl2, 100 ug/mL BSA, 25 ug/mL total yeast RNA, 2.5 nM labeled RNA, 45 min, room temperature. As to conditions: protein: recombinant; tags: N-terminal His10-SUMO removed by bdSENP1; label: 5'-32P; hairpin.

B1: dfnA* mutant terminator (dfnA mut) (structured_RNA)
RNA: GGAAACACAGUUUGCGAUUUUUAAACCUGUGCUGAAUCGCAAACUGUG
On to B1, for which the binding result is given as “binds”.

B2: dfnA terminator (structured_RNA)
RNA: GGAAACACAAUGCGUUUGCGAUUUUUAAACCUGUGCUGAAUCGCAAACGCGUUUGUG
For the molecule B2, the binding result was “binds”.

The record behind these values is article PMC12691694, “Bacillus velezensis LoaP promotes antitermination by antagonizing NusA”.
